Non-standard residues stand in square brackets, D forms with d. No end group written: not given here. pS = N[C@@H](COP(=O)(O)O)C(=O)O
T1: human Scribble PDZ3 domain (1005-1094) (human, UniProt Q14160 1005-1094)
T1 sequence (looked up): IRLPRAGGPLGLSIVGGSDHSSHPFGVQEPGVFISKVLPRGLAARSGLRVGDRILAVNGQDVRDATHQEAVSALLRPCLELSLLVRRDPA


What follows are binders tested against human Scribble PDZ1 domain (728-815) (human, UniProt Q14160 728-815) (assay: ITC).
Sequence of human Scribble PDZ1 domain (728-815) (Q14160 728-815): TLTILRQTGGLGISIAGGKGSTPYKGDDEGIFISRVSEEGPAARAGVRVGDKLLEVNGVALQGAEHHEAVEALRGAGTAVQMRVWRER

Kd [µM] | Binder
7.7 | PHTNETSL [MCC 8-mer peptide spanning the C-terminus (PDZ-binding motif) of human MCC]
7 | PHTNETDL [MCC_SD 8-mer peptide (Ser to Asp at position -1)]
7.2 | PHTNETEL [MCC_SE 8-mer peptide (Ser to Glu at position -1)]
6.1 | PHTNET[pS]L [phosphorylated MCC 8-mer peptide (phospho-Ser at position -1)]

Each binder was assayed against T1, human Scribble PDZ3 domain (1005-1094) (assay: ITC).

Kd [µM] | Binder
5 | PHTNETSL [MCC 8-mer peptide spanning the C-terminus (PDZ-binding motif) of human MCC]
3.4 | PHTNETDL [MCC_SD 8-mer peptide (Ser to Asp at position -1)]
4.5 | PHTNETEL [MCC_SE 8-mer peptide (Ser to Glu at position -1)]
3.7 | PHTNET[pS]L [phosphorylated MCC 8-mer peptide (phospho-Ser at position -1)]

— publication doi:10.1101/501064 (bioRxiv, 2018)
